From publication PMC9571070, “Three-Fluorophore FRET Enables the Analysis of Ternary Protein Association in Living Plant Cells” (Plants, 2022)

Molecular target: T1, Receptor-Like Protein 44 fused to monomeric Turquoise 2 (RLP44-mTRQ2) (UniProt Q9M2Y3 25-274)
T1 construct: Receptor-Like Protein 44 (RLP44); Plasma membrane protein with its own signal peptide; also called RLP44-TRQ2; source: N. benthamiana epidermal leaf cells, transiently transformed, in living cells; not shown: mTRQ2, C-terminal, kept
T1 sequence (looked up): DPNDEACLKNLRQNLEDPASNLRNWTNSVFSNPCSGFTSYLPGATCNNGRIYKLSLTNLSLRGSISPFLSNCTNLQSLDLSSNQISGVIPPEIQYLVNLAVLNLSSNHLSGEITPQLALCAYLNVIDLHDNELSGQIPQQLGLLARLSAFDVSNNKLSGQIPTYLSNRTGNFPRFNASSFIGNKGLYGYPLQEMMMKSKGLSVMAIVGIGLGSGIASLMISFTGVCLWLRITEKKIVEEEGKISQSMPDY
Test: FRET or BRET; FRET-FLIM, fluorescence lifetime of the donor RLP44-mTRQ2 (440 nm pulsed laser, TCSPC), two fusion proteins co-expressed, plasma membrane of living N. benthamiana epidermal leaf cells
Details: partners not purified

- fluorescence lifetime of the donor RLP44-mTRQ2 (donor alone about 3.99 ns): 3.54 ns
B1: BRI1 Associated Kinase 1 fused to monomeric red fluorescence protein 1 (BAK1-mRFP) (receptor, UniProt Q94F62 26-615, looked up)
chain: NAEGDALSALKNSLADPNKVLQSWDATLVTPCTWFHVTCNSDNSVTRVDLGNANLSGQLVMQLGQLPNLQYLELYSNNITGTIPEQLGNLTELVSLDLYLNNLSGPIPSTLGRLKKLRFLRLNNNSLSGEIPRSLTAVLTLQVLDLSNNPLTGDIPVNGSFSLFTPISFANTKLTPLPASPPPPISPTPPSPAGSNRITGAIAGGVAAGAALLFAVPAIALAWWRRKKPQDHFFDVPAEEDPEVHLGQLKRFSLRELQVASDNFSNKNILGRGGFGKVYKGRLADGTLVAVKRLKEERTQGGELQFQTEVEMISMAVHRNLLRLRGFCMTPTERLLVYPYMANGSVASCLRERPESQPPLDWPKRQRIALGSARGLAYLHDHCDPKIIHRDVKAANILLDEEFEAVVGDFGLAKLMDYKDTHVTTAVRGTIGHIAPEYLSTGKSSEKTDVFGYGVMLLELITGQRAFDLARLANDDDVMLLDWVKGLLKEKKLEALVDVDLQGNYKDEEVEQLIQVALLCTQSSPMERPKMSEVVRMLEGDGLAERWEEWQKEEMFRQDFNYPTHHPAVSGWIIGDSTSQIENEYPSGPR
notes: BRI1 Associated Kinase 1 (BAK1), co-receptor kinase; also called BAK1-RFP; source: N. benthamiana epidermal leaf cells, transiently transformed, in living cells; not shown: mRFP, C-terminal, kept
